Source: patent EP1720907B1 (MorphoSys AG, dated 2015)
Where “and” joins values, the source holds several entries; their conditions need not be identical. Equal entries are not always repeated.

T1: human CD38 (human, UniProt P28907 1-300)
T1 sequence: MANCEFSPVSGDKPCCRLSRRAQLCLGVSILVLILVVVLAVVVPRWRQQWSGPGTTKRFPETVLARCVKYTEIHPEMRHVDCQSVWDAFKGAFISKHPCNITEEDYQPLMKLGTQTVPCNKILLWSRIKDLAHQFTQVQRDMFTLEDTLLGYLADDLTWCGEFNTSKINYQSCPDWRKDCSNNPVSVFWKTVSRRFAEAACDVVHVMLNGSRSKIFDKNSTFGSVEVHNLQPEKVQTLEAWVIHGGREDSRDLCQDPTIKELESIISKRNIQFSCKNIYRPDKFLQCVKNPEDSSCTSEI

B1: MOR03077 human IgG1 (antibody, V domains shown)
VH: QVQLVQSGAEVKKPGASVKVSCKASGYTFTSYSINWVRQAPGQGLEWMGYIDPNRGNTNYAQKFQGRVTMTRDTSISTAYMELSSLRSEDTAVYYCAREYIYFIHGMLDFWGQGTLVTVSS
VL: DIVMTQSPLSLPVTPGEPASISCRSSQSLLFIDGNNYLNWYLQKPGQSPQLLIYLGSNRASGVPDRFSGSGSGTDFTLKISRVEAEDVGVYYCQQYSSKSATFGQGTKVEIKR
B2: MOR03080 human IgG1 (antibody, V domains shown)
VH: QVQLVESGGGLVQPGGSLRLSCAASGFTFSSYGMHWVRQAPGKGLEWVSNIYSDGSNTFYADSVKGRFTISRDNSKNTLYLQMNSLRAEDTAVYYCARNMYRWPFHYFFDYWGQGTLVTVSS
VL: DIELTQPPSVSVAPGQTARISCSGDNIGNKYVSWYQQKPGQAPVVVIYGDNNRPSGIPERFSGSNSGNTATLTISGTQAEDEADYYCSSYDSSYFVFGGGTKLTVLG
B3: MOR03100 human IgG1 (antibody, V domains shown)
VH: QVQLVESGGGLVQPGGSLRLSCAASGFTFSSNGMSWVRQAPGKGLEWVSNISYLSSSTYYADSVKGRFTISRDNSKNTLYLQMNSLRAEDTAVYYCARFYGYFNYADVWGQGTLVTVSS
VL: DIELTQPPSVSVAPGQTARISCSGDNIGHYYASWYQQKPGQAPVLVIYRDNDRPSGIPERFSGSNSGNTATLTISGTQAEDEADYYCQSYDYLHDFVFGGGTKLTVLG
B4: MOR03079 human IgG1 (antibody, V domains shown)
VH: QVQLVESGGGLVQPGGSLRLSCAASGFTFSNYGMHWVRQAPGKGLEWVSNIRSDGSWTYYADSVKGRFTISRDNSKNTLYLQMNSLRAEDTAVYYCARRYWSKSHASVTDYWGQGTLVTVSS
VL: DIQMTQSPSSLSASVGDRVTITCRASQDISAFLNWYQQKPGKAPKLLIYKVSNLQSGVPSRFSGSGSGTDFTLTISSLQPEDFATYYCQQAYSGSITFGQGTKVEIKR

What follows are molecules tested against T1, human CD38 (assay: cell-based or functional assay).

Compared with Chimeric OKT10 (antibody), B1 is 8.7-fold lower in ADCC EC50 [nM], LP-1: 5.23 nM for the first, 0.6 nM for the second.

Going from B2 to B3, the ADCC EC50 [nM], LP-1 rises from 0.17 nM to 1 nM (5.9-fold).

With B4 the “ADCC EC50 [nM], LP-1” value was 0.09 nM.

Going from Chimeric OKT10 (antibody) to B1, the ADCC EC50 [nM], RPMI8226 falls from 4.1 nM to 0.08 nM (51-fold).

Going from B2 to B3, the ADCC EC50 [nM], RPMI8226 rises from 0.05 nM to 0.28 nM (5.6-fold).

For B4, the “ADCC EC50 [nM], RPMI8226” value was 0.04 nM.

In the case of B1, the “CDC EC50 [nM], CHO-transfectants” value is reported as 0.8 nM and 0.94 nM.
In the case of B2, the “CDC EC50 [nM], CHO-transfectants” value is reported as 3.2 nM and 2.93 nM.
B3 was tested, and the “CDC EC50 [nM], CHO-transfectants” value was 10.9 nM and 13.6 nM.
